In patent US20230277682A1 (priority 2022, published 2023):

B1: mAb11729 (antibody, V domains shown)
VH: QVQLVQSGAEVKKSGSSVKVSCKASGGTFSSYAISWVRQAPGQGLEWMGGIIPIFGTPSYAQKFQDRVTITTDESTSTVYMELSSLRSEDTAVYYCARQQPVYQYNMDVWGQGTTVTVSS
VL: DIQMTQSPSSLSASVGDRVTITCRASQGIRNNLGWYQQKPLKAPKRLIYAASSLQSGVPSRFSGSGSGTEFTLTISSLQPEDFATYYCLQYNNYPWTFGQGTKVEIK
B2: 11729-HC-Cterm-LLQGA-19C (conjugate)
heavy: QVQLVQSGAEVKKSGSSVKVSCKASGGTFSSYAISWVRQAPGQGLEWMGGIIPIFGTPSYAQKFQDRVTITTDESTSTVYMELSSLRSEDTAVYYCARQQPVYQYNMDVWGQGTTVTVSSLLQGA
VL: DIQMTQSPSSLSASVGDRVTITCRASQGIRNNLGWYQQKPLKAPKRLIYAASSLQSGVPSRFSGSGSGTEFTLTISSLQPEDFATYYCLQYNNYPWTFGQGTKVEIK
modifications: left off: a dimerising Fc or GST
B3: 11729-HC-Cterm-LLQGA-10b (conjugate)
heavy: QVQLVQSGAEVKKSGSSVKVSCKASGGTFSSYAISWVRQAPGQGLEWMGGIIPIFGTPSYAQKFQDRVTITTDESTSTVYMELSSLRSEDTAVYYCARQQPVYQYNMDVWGQGTTVTVSSLLQGA
VL: DIQMTQSPSSLSASVGDRVTITCRASQGIRNNLGWYQQKPLKAPKRLIYAASSLQSGVPSRFSGSGSGTEFTLTISSLQPEDFATYYCLQYNNYPWTFGQGTKVEIK
modifications: left off: a dimerising Fc or GST
B4: 11729-HC-Cterm-LLQGA-19a (conjugate)
heavy: QVQLVQSGAEVKKSGSSVKVSCKASGGTFSSYAISWVRQAPGQGLEWMGGIIPIFGTPSYAQKFQDRVTITTDESTSTVYMELSSLRSEDTAVYYCARQQPVYQYNMDVWGQGTTVTVSSLLQGA
VL: DIQMTQSPSSLSASVGDRVTITCRASQGIRNNLGWYQQKPLKAPKRLIYAASSLQSGVPSRFSGSGSGTEFTLTISSLQPEDFATYYCLQYNNYPWTFGQGTKVEIK
modifications: left off: a dimerising Fc or GST
B5: 11729-HC-Cterm-LLQGA-19b (conjugate)
heavy: QVQLVQSGAEVKKSGSSVKVSCKASGGTFSSYAISWVRQAPGQGLEWMGGIIPIFGTPSYAQKFQDRVTITTDESTSTVYMELSSLRSEDTAVYYCARQQPVYQYNMDVWGQGTTVTVSSLLQGA
VL: DIQMTQSPSSLSASVGDRVTITCRASQGIRNNLGWYQQKPLKAPKRLIYAASSLQSGVPSRFSGSGSGTEFTLTISSLQPEDFATYYCLQYNNYPWTFGQGTKVEIK
modifications: left off: a dimerising Fc or GST

Test system: H1N1 A/Puerto Rico/08/1934 influenza virus
Assay type: cell-based

| Molecule | antiviral activity against H1N1 in vitro | Fold Increase over Parental Antibody [fold] |
| --- | --- | --- |
| B1 | displays antiviral activity against H1N1 in vitro |  |
| B2 |  | 28.78 |
| B3 |  | 6.96 |
| B4 |  | 7.75 |
| B5 |  | 15.76 |
